Experimental data: paper PMC2267099, “Inhibition of Horse Liver Alcohol Dehydrogenase by Methyltin Compounds” (Bioinorganic Chemistry and Applications, 2005)

Substrate: CCO
Assay: purified protein
Type: biochemical, Equus caballus
Settings: no inhibitor, NAD+ 0.6 mM, pH 9.5 TRIS-HCl 0.05 M, room temperature

B1: alcohol dehydrogenase from horse liver (HLADH) (Equus caballus) (protein)
chain: STAGKVIKCKAAVLWEEKKPFSIEEVEVAPPKAHEVRIKMVATGICRSDDHVVSGTLVTPLPVIAGHEAAGIVESIGEGVTTVRPGDKVIPLFTPQCGKCRVCKHPEGNFCLKNDLSMPRGTMQDGTSRFTCRGKPIHHFLGTSTFSQYTVVDEISVAKIDAASPLEKVCLIGCGFSTGYGSAVKVAKVTQGSTCAVFGLGGVGLSVIMGCKAAGAARIIGVDINKDKFAKAKEVGATECVNPQDYKKPIQEVLTEMSNGGVDFSFEVIGRLDTMVTALSCCQEAYGVSVIVGVPPDSQNLSMNPMLLLSGRTWKGAIFGGFKSKDSVPKLVADFMAKKFALDPLITHVLPFEKINEGFDLLRSGESIRTILTF
notes: commercial native enzyme from horse liver (Fluka AG), full length, used as received
Work on B1 yielded a Km of 46.7 ± 0.8 mM.
